Experimental data: the supplement of paper PMC9233669
This sample holds only a part of the variants without activity.

Experiments:
biotinyl-Phe-oxazolone = assay: self-aminoacylation, catalytic enhancement (BFO) (fold over background); higher = more active; k-Seq, kA / k0A0; sequences stand for … in GGGAAUGGAUCCACAUCUACGAAUUC…UUCACUGCAGACUUGACGAAGCUG
Procedure, shortened: (§1)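 Each biotinyl-aminoacyl-oxazolone, at 2–1250 μM, was incubated with mutagenized RNA pools (0.43 μM) carrying a 21-nt variable region. The 50 μL reactions contained HEPES/NaCl/KCl/MgCl2/CaCl2 buffer with 5% acetonitrile at pH 6.9–7.0 and ran for 90 minutes at room temperature. After streptavidin capture, RNA was measured by qPCR in triplicate and by Illumina sequencing, and catalytic enhancement was calculated as median kA over the uncatalyzed rate from a pseudo-first-order fit of per-sequence fraction reacted.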

biotinyl-Ile-oxazolone = assay: self-aminoacylation, catalytic enhancement (BIO) (fold over background); higher = more active; k-Seq, kA / k0A0; sequences stand for … in GGGAAUGGAUCCACAUCUACGAAUUC…UUCACUGCAGACUUGACGAAGCUG
Procedure, shortened: as §1

biotinyl-Met-oxazolone = assay: self-aminoacylation, catalytic enhancement (BMO) (fold over background); higher = more active; k-Seq, kA / k0A0; sequences stand for … in GGGAAUGGAUCCACAUCUACGAAUUC…UUCACUGCAGACUUGACGAAGCUG
Procedure, shortened: as §1

biotinyl-Val-oxazolone = assay: self-aminoacylation, catalytic enhancement (BVO) (fold over background); higher = more active; k-Seq, kA / k0A0; sequences stand for … in GGGAAUGGAUCCACAUCUACGAAUUC…UUCACUGCAGACUUGACGAAGCUG
Procedure, shortened: as §1

biotinyl-Leu-oxazolone = assay: self-aminoacylation, catalytic enhancement (BLO) (fold over background); higher = more active; k-Seq, kA / k0A0; sequences stand for … in GGGAAUGGAUCCACAUCUACGAAUUC…UUCACUGCAGACUUGACGAAGCUG
Procedure, shortened: as §1

biotinyl-Trp-oxazolone = assay: self-aminoacylation, catalytic enhancement (BWO) (fold over background); higher = more active; k-Seq, kA / k0A0; sequences stand for … in GGGAAUGGAUCCACAUCUACGAAUUC…UUCACUGCAGACUUGACGAAGCUG
Procedure, shortened: as §1

Row | Sequence | self-aminoacylation (biotinyl-Phe-oxazolone) | self-aminoacylation (biotinyl-Ile-oxazolone) | self-aminoacylation (biotinyl-Met-oxazolone) | self-aminoacylation (biotinyl-Val-oxazolone) | self-aminoacylation (biotinyl-Leu-oxazolone) | self-aminoacylation (biotinyl-Trp-oxazolone)
1 | CUGCUUCAACCAAUCGGUCUG [Fam1A.1 aminoacylation ribozyme variant] | 79.4 | 1.31 | 1.41 | 1.38 | 2.45 | 43.2
2 | CUUACACUGGUCAUCGAGUGA [Fam2.1 aminoacylation ribozyme variant] | 10.2 | 2.65 | 4.19 | 2.69 | 4.41 | 4.94
3 | CUUACCCGGGUCAUCGAGUGA [Fam2.1 aminoacylation ribozyme variant] | 36.5 | 3.03 | 5.92 | 3.48 | 7.48 | 7.34
4 | CUUACCCUCGUCAUCGAGUGA [Fam2.1 aminoacylation ribozyme variant] | 3.66 | 1.82 | 2.42 | 1.92 | 2.47 | 3.21
5 | CUUACCCUGGUCAACGAGUGA [Fam2.1 aminoacylation ribozyme variant] | 15.8 | 2.56 | 5.06 | 3.29 | 5.08 | 6.73
6 | CUUACCCUGGUCACCGAGUGA [Fam2.1 aminoacylation ribozyme variant] | 57.1 | 3.87 | 9.14 | 4.49 | 8.9 | 8.62
7 | CUUACCCUGGUCAUCCAGUGA [Fam2.1 aminoacylation ribozyme variant] | 16.9 | 2.37 | 4.04 | 2.77 | 4.63 | 5.03
8 | CUUACCCUGGUCAUCGCGUGA [Fam2.1 aminoacylation ribozyme variant] | 148 | 7.79 | 18.7 | 10.9 | 18.9 | 18.5
9 | CUUACCCUGGUCAUGGAGUGA [Fam2.1 aminoacylation ribozyme variant] | 10.1 | 2.16 | 3.59 | 2.21 | 3.74 | 4.01
10 | CUUACGCUGGUCAUCGAGUGA [Fam2.1 aminoacylation ribozyme variant] | 7.86 | 2.13 | 3.06 | 2.61 | 3.03 | 3.35
11 | CUUACUCUGGUCAUCGAGUGA [Fam2.1 aminoacylation ribozyme variant] | 14.2 | 2.54 | 4.98 | 3.07 | 5.28 | 5.52
12 | CUUCACCUACGUCAUCGGGUG [Fam2.2 aminoacylation ribozyme variant] | 37.8 | 3.06 | 5.1 | 3.69 | 5.63 | 4.58
13 | CUUCACCUAGGACAUCGGGUG [Fam2.2 aminoacylation ribozyme variant] | 14.1 | 2.34 | 3.03 | 2.68 | 3.53 | 3.31
14 | CUUCACCUAGGCCAUCGGGUG [Fam2.2 aminoacylation ribozyme variant] | 11.2 | 2.55 | 3.12 | 3.8 | 4.08 | 4.2
15 | CUUCACCUAGGUCAUCAGGUG [Fam2.2 aminoacylation ribozyme variant] | 1.47 | 1.46 | 1.62 | 1.7 | 1.84 | 1.31
16 | CUUCACCUAGGUCAUCGCGUG [Fam2.2 aminoacylation ribozyme variant] | 96.5 | 7.29 | 12.4 | 8.89 | 13.6 | 10.9
17 | CUUCACCUAGGUCAUCGGGUG [Fam2.2 aminoacylation ribozyme variant] | 34.6 | 4.63 | 7.51 | 5.18 | 9 | 6.65
18 | CUUCACCUAGGUCAUCGGGUU [Fam2.2 aminoacylation ribozyme variant] | 18.1 | 4.09 | 5.02 | 3.77 | 7.09 | 5.02
19 | CUUCACCUAGGUCAUUGGGUG [Fam2.2 aminoacylation ribozyme variant] | 12.3 | 1.98 | 2.36 | 2.22 | 2.25 | 2.35
20 | CUUCACCUAUGUCAUCGGGUG [Fam2.2 aminoacylation ribozyme variant] | 17 | 2.35 | 3.64 | 2.83 | 4.68 | 4.46
21 | CUUCACGUAGGUCAUCGGGUG [Fam2.2 aminoacylation ribozyme variant] | 36.6 | 3.59 | 4.38 | 4.16 | 4.22 | 4.63
22 | CUUCACUUCAAGCAAUCGGUC [Fam1B.1 aminoacylation ribozyme variant] | 46.4 | 1.05 | 1.16 | 1.15 | 1.55 | 20.9
23 | CUUCAGCUAGGUCAUCGGGUG [Fam2.2 aminoacylation ribozyme variant] | 16 | 2.65 | 3.42 | 3.6 | 3.57 | 3.83
24 | CUUCGCCUAGGUCAUCGGGUG [Fam2.2 aminoacylation ribozyme variant] | 37.4 | 3.75 | 3.41 | 4.54 | 4.47 | 5.8
25 | CUUCUCCUAGGUCAUCGGGUG [Fam2.2 aminoacylation ribozyme variant] | 35.6 | 4.42 | 6.43 | 4.48 | 8.84 | 6.52
26 | CUUCUUAAAACAAUCGGUCUG [Fam1A.1 aminoacylation ribozyme variant] | 0.699 | 0.859 | 0.895 | 0.748 | 0.739 | 0.564

Row | Sequence | self-aminoacylation (biotinyl-Phe-oxazolone) | self-aminoacylation (biotinyl-Ile-oxazolone) | self-aminoacylation (biotinyl-Met-oxazolone) | self-aminoacylation (biotinyl-Val-oxazolone) | self-aminoacylation (biotinyl-Leu-oxazolone) | self-aminoacylation (biotinyl-Trp-oxazolone)
27 | CUUCUUCAAAAAAUCGGUCUG [Fam1A.1 aminoacylation ribozyme variant] | 6.58 | 1 | 0.902 | 0.851 | 1.02 | 5.39
28 | CUUCUUCAAACAAUCGGUCUC [Fam1A.1 aminoacylation ribozyme variant] | 28.6 | 0.814 | 0.773 | 0.874 | 1.08 | 13.6
29 | CUUCUUCAAACAAUCGUUCUG [Fam1A.1 aminoacylation ribozyme variant] | 1.06 | 0.68 | 0.62 | 0.6 | 0.65 | 0.804
30 | CUUCUUCAAUCAAUCGGUCUG [Fam1A.1 aminoacylation ribozyme variant] | 18.9 | 0.975 | 0.986 | 0.956 | 1.21 | 11.3
31 | CUUGACCUAGGUCAUCGGGUG [Fam2.2 aminoacylation ribozyme variant] | 23.2 | 3.43 | 3.39 | 3.87 | 4.42 | 5.2
32 | CUUGCCCUGGUCAUCGAGUGA [Fam2.1 aminoacylation ribozyme variant] | 64.3 | 6.56 | 15.4 | 7.34 | 14.7 | 16.5
33 | CUUGUUCAAACAAUCGGUCUG [Fam1A.1 aminoacylation ribozyme variant] | 5.84 | 1.07 | 0.957 | 0.967 | 1.18 | 3.07
34 | CUUUACCUAGGUCAUCGGGUG [Fam2.2 aminoacylation ribozyme variant] | 25.3 | 3.85 | 5.23 | 3.71 | 7.1 | 5.46
35 | CUUUUUCAAACAAUCGGUCUG [Fam1A.1 aminoacylation ribozyme variant] | 6.81 | 0.86 | 0.67 | 0.815 | 0.89 | 3.86
36 | GAGUCUGCUAAUAGUCGCAAG [Fam3.1 aminoacylation ribozyme variant] | 46.9 | 1.99 | 2.34 | 1.63 | 2.07 | 14
37 | GAGUUUACUAAUAGUCGCAAG [Fam3.1 aminoacylation ribozyme variant] | 3.13 | 1.84 | 1.19 | 1.29 | 1.59 | 2.33
38 | GAGUUUGCUAAUAGUCGCAAG [Fam3.1 aminoacylation ribozyme variant] | 22.7 | 1.72 | 1.78 | 1.5 | 1.39 | 7.44
39 | GAGUUUGCUAAUUGUCGCAAG [Fam3.1 aminoacylation ribozyme variant] | 2.2 | 1.36 | 1.34 | 1.24 | 1.53 | 2.06
40 | GAGUUUGCUAUUAGUCGCAAG [Fam3.1 aminoacylation ribozyme variant] | 2.47 | 1.18 | 1.17 | 1.01 | 1.28 | 1.72
41 | GAUACCCUGGUCAUCGAGUGA [Fam2.1 aminoacylation ribozyme variant] | 31.6 | 4.92 | 8.5 | 5.43 | 7.96 | 10.5
42 | GCAAACUUCAAGCAAUCGGUC [Fam1B.1 aminoacylation ribozyme variant] | 21.7 | 2.13 | 2.05 | 2.17 | 2.47 | 19.5
43 | GCACACUUAAAGCAAUCGGUC [Fam1B.1 aminoacylation ribozyme variant] | 1.1 | 1.25 | 1.06 | 1.18 | 1.15 | 1.49
44 | GCACACUUCAAGAAAUCGGUC [Fam1B.1 aminoacylation ribozyme variant] | 7.74 | 1.97 | 1.87 | 1.59 | 2.21 | 8.15
45 | GCACACUUCAAGCAAUCGGUG [Fam1B.1 aminoacylation ribozyme variant] | 49.1 | 6.23 | 8.09 | 5.92 | 10.3 | 10.1
46 | GCACACUUCAAGCAGUCGGUC [Fam1B.1 aminoacylation ribozyme variant] | 1.33 | 1.56 | 1.55 | 1.41 | 1.75 | 1.69
47 | GCACACUUCAAGCCAUCGGUC [Fam1B.1 aminoacylation ribozyme variant] | 8.33 | 2.81 | 2.32 | 2.57 | 2.81 | 3.87
48 | GCACACUUCAAGGAAUCGGUC [Fam1B.1 aminoacylation ribozyme variant] | 3.95 | 1.67 | 1.55 | 1.22 | 1.61 | 4.35
49 | GCACACUUCAAGUAAUCGGUC [Fam1B.1 aminoacylation ribozyme variant] | 8.6 | 1.89 | 1.88 | 1.7 | 1.77 | 8.15
50 | GCACACUUCGAGCAAUCGGUC [Fam1B.1 aminoacylation ribozyme variant] | 2.2 | 1.87 | 1.9 | 1.81 | 1.46 | 2.86
51 | GCACACUUCUAGCAAUCGGUC [Fam1B.1 aminoacylation ribozyme variant] | 1.34 | 1.2 | 0.936 | 1.22 | 0.999 | 1.28
